Reference: patent publication US20150079112A1 (SAMSUNG ELECTRONICS, published 2015)

What was measured:
Assay in all cases: ELISA, coated antibody 1000 nM, 250 ng FLAG-tagged mutant Ang2, anti-FLAG-HRP, OD450
[1] = target: T1, mutant Ang2 protein, D448 substituted with alanine, FLAG-tagged at its N-terminal (human, UniProt O15123 19-496, limits assumed)
T1 sequence: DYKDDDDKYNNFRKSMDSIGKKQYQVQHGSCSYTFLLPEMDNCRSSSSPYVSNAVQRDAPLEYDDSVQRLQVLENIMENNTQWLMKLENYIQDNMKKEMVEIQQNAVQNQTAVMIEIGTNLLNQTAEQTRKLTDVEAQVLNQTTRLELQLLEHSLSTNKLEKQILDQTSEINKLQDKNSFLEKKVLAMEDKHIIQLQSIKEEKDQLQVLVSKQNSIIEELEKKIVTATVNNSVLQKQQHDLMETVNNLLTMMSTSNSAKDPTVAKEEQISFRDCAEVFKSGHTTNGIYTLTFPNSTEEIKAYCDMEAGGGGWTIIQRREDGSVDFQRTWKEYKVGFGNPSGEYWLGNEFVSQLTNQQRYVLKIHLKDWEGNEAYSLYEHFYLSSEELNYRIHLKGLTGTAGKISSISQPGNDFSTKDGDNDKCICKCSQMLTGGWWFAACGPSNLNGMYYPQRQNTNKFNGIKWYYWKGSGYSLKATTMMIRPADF
Method: (§1) Each well of a 96-well MaxiSorp™ flat-bottom plate (Nunc) was coated with 50 ul (microliter) of 1000 nM antibody. Then, the plate was washed five times with 0.05% (v/v) Tween-20-containing PBS (PBST) and blocked with 1% (v/v) BSA-containing PBS at a room temperature for 2 hours. 250 ng of each mutant Ang2 protein obtained by substituting S417, Q418, P419, N421, I434, D448, A449, P452, Y460, N467, K468, or F469 residue of Ang2 protein tagged with a FLAG sequence ([…], Sigma) at its N-terminal with alanine was added to each well of the plate, which was then allowed to react at a room temperature for 2 hours.
(§2) The plate was washed five times with 0.05% (v/v) Tween-20 containing PBS, reacted with an anti-FLAG antibody (SIGMA) conjugated with HRP which was diluted in 1% (v/v) BSA-containing PBS at a ratio of 1:5,000 (v/v) at a room temperature for 1 hour, and washed five times with 0.1% (v/v) Tween-20-containing PBS.
(§3) Finally, 50 ul of TMB substrates (Cell signaling) was added to each well of the plate to induce color development at a room temperature for 3 min. and the reaction was ceased by the addition of 50 ul of Stop solution (Cell signaling) and then, OD450 values were measured on a plate reader (Molecular Devices). By comparing binding affinities with mutated Ang2 to those of unmutated Ang2, each epitope of Ang2 antibodies was identified. The thus obtained measurement results of the binding affinities (%) with mutant Ang2 against the binding affinity with the native Ang2 are shown in the following Table 8.

[2] = target: T2, mutant Ang2 protein, S417 substituted with alanine, FLAG-tagged at its N-terminal (human, UniProt O15123 19-496, limits assumed)
T2 sequence: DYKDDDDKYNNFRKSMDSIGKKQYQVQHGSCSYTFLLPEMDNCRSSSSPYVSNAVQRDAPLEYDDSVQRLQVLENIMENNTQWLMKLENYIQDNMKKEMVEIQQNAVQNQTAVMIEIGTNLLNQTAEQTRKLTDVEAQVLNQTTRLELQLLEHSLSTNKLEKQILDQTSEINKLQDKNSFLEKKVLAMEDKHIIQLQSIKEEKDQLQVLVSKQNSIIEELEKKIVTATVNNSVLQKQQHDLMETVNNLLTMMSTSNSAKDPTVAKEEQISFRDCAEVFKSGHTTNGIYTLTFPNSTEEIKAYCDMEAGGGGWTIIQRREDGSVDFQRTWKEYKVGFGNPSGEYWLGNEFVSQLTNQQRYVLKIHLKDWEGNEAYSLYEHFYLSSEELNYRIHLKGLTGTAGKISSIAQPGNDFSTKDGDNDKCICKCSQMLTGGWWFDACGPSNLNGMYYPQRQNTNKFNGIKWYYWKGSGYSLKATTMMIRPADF
Method: as §1, §2, §3

[3] = target: T3, mutant Ang2 protein, Q418 substituted with alanine, FLAG-tagged at its N-terminal (human, UniProt O15123 19-496, limits assumed)
T3 sequence: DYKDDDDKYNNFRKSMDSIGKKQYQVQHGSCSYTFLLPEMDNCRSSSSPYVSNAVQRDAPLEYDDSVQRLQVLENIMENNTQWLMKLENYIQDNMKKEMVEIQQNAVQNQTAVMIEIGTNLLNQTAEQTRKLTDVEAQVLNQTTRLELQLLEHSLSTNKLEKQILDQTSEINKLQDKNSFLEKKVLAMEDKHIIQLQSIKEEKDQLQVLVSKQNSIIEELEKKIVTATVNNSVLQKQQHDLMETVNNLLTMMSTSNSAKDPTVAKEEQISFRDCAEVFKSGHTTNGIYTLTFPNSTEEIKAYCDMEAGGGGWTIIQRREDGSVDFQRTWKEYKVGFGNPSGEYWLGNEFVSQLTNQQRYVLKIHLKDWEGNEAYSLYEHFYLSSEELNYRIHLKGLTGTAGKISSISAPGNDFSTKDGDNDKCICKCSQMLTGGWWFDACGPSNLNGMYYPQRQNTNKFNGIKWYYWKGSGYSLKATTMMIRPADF
Method: as §1, §2, §3

[4] = target: T4, mutant Ang2 protein, Y460 substituted with alanine, FLAG-tagged at its N-terminal (human, UniProt O15123 19-496, limits assumed)
T4 sequence: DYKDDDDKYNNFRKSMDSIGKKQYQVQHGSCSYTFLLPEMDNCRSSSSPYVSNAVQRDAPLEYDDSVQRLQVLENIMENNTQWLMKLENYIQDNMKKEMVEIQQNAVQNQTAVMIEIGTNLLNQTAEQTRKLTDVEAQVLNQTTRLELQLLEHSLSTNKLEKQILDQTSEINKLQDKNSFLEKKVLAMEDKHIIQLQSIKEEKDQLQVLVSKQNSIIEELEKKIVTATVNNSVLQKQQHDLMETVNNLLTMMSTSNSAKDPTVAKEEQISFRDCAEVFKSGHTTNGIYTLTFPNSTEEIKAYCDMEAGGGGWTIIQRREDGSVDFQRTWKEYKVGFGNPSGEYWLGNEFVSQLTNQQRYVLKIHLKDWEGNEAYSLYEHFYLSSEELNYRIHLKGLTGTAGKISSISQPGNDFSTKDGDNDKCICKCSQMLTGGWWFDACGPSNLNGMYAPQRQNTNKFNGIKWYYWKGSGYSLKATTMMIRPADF
Method: as §1, §2, §3

B1: SAIT-ANG2-AB-m10D6 (antibody, V domains shown)
VH: DVQLQESGPGLVKPSQSLSLTCTVTGYSITSDYAWNWIRQFPGNKLEWMGYINYSGNTDYNPSLKSRSSITRDTSKNQFFLQLNSVTTGDTATYYCARGNFEGAMDYWGQGTSVTVSS
VL: SIVMTQTPKFLLVSAGDRVTITCKASQSVSNDVAWYQQKPGQSPKLLIYYASNRYPGVPDRFTGSGYGTDFTFTISTVQAEDLAVYFCQQDYSSPWTFGGGTKLEIK
notes: also called antibody 10D6; anti-Ang2 antibody (10D6)
[1]
  binding affinity (%) with mutant Ang2 against the binding affinity with the native Ang2: 105%
[2]
  binding affinity (%) with mutant Ang2 against the binding affinity with the native Ang2: 101%
[3]
  binding affinity (%) with mutant Ang2 against the binding affinity with the native Ang2: 38.9%
[4]
  binding affinity (%) with mutant Ang2 against the binding affinity with the native Ang2: 103%
